Source: patent publication US20230365712A1

Target: Notch4^GFP expressed in transfected Jurkat cells

Jagged1 (ligand) showed a Notch4-GFP positive cells (%), Jagged1 without mAb of 53.5%.
